A short description of the series: label from the status in PepcDB records.

Experimental findings from a protein production outcome set (Wang et al. 2014) are described below.
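Note: failed if final PepcDB status was selected cloned or expressed and not failed if soluble or beyond.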

In the case of “MIETLITFIIIFGIIVAIHEYGHLWWAKRSGILVREYAVGMGPKIFAHQAKDGTLYTIRILPLGGYVRLAGWGDDKTEIKKGQAASLVVSKSEVVNPEAENSVSNIVRRINLSEHVELEEAIPMLITEYDFEKELFIEGEVFGEIKRYSVDHDATIIEEDGTEVRIAPLDVQYQSAGVFHKMLTNFGGPLNNFILGIIAFIVLTFVQGGVPSTTNAIGQVEKGTPAYNAGLKAGDKIEAVNGTKTADWNNVVTEISGSKGKELKLEVSRSGKSETLSVTPKKMDGSYRVGIMQSMKTGFFDKITGGFVQAGQSATAIFKALGSLIARPSLDKLGGPVAIYQLSGQAARAGFPAIVYLLAMLSINLGIVNLFPIPVLDGGKIVLNIIEAIRGKALSQEKESIITMVGVVFMLVLFVAVTWNDILRAFVN”, the protein production entry is listed as “failed”.

For the sequence “MIFERIKSEGLAHLSYLIGSGDEAIVIDPRRDCQVYFDLARSKGMKIKYIFETHRNEDYIIGSLELEKLTDAGIYHGSGVDFKYGNILKKDRQEFIFGALKLTALHTPGHTDESMSYVLTDPDAGKEPIMVFTGDALFVGDVGRTDLYGPEEVPRLAANLYDSIFNKILPLGDGVILCPAHGAGSLCGGAISNREYSTLGLEKVQNPVLKKTEKEEFVKFKLEEKLEFPPYFKKMEQYNLQGPPLLQSLPIPKLLSPDEFKAEMEKGAVVVDTRMPHSFGGALIKGSYSIWLEGLPSFAGWMLPYDKPILLVLEEKEQLETAVRYLVRLGYDNMRGFLNGGIAAWYMEALQIDGFNLLSVHDLKSKLEKDEEIVILDVRSNEEWEEGHIEGARHIYVGHVEENLDEIPKDCPIVVYCGSARRSNIAASVLKKHGYRKIYNVLGSMVAWKNAGYEVVK”, the protein production entry is on record as “failed”.

Consider “MIFIKKPSLKALSCASILFALSGCVPPNQFGEDYSRDVCKTKRDELIALDNHFSSNMVAGGIIGTLAGAGLGAAAAAATNGDIITATLIGAAAGMAVGAGSAYWNELSKQHGEGELLLFSLLGDMRRDEEKVTKAQIALDNLMSCRRTEAAQVHADYRAKRISAQEAKTRMEAIRRRAEKDVSVAKDINKGVQDRRGSYEYAFEQSKKIKTKNKKDKKKIEKTYTSMDKYCGSYNTSVQVAETSLNTEFKADGFTSSYLIYPDSTPNTQISCR”, for which the protein production entry is listed as “failed”.

Take “MIFMRKVVAEVSIIPLGKGASVSKYVKKAIEVFKKYDLKVETNAMGTVLEGDLDEILKAFKEAHSTVLNDVDRVVSSLKIDERKDKENTIERKLKAIGEL”: the protein production result is recorded as “not failed”.

With “MIFNSARLKDMDIQYQILRQIEKYQTIIIHRHQRPDPDAVGSQLGLKNGLQAAFPEKNIYAVGKEITGLAWVGSMDIIPDSTYENALVIVIDTANVARIDDDRFKNGDKLIKIDHHPNDEPYGDLMWVEPGRSSCSEMVTFFLDDNIPLLLTDEAARNLYIGIVGDTGRFMYASTPETFIAVSKLYHFSIDYERVNREMSSISLVQARFSGKVYDEMKVEDHVGWITLTKAEIEAGHLGNEGTNFVVGMFGSIKEVLVWANFIENDDGSYRVRLRSKGPNVNEIAKLHNGGGHDMASGAKAKDQTEIDQIIKELKESANIFSTSLEKTAK”, the protein production result is recorded as “failed”.

“MIFSQRIYFIILFHVLLILVTAGTGLWLVVSHTGYIIGGILLLCSLFQIGALTRQLNTFNRKIRLFFDAVQDKDNMLYFPEANVGKEQAQLNRSLNRLNDLLARTKGESHKQEHFYQSLLEEVPSGVLAWDDSGRIIIANSAAFSLLKCNRLYTETQLAQLLNATGIRKSLSISEKKMILDGETITILSIKDIGDELSDKENESWSKLTHVLTHEIMNTIAPILSLSQTLSERPDINEKSARGLRIIQAQSERLMEFTESFRHLSYLPHPEKRRFALTEMLRNLEELLQSDFRERGIRFMLQCVPDPIETDGDPNQLSQVFLNLLKNAMQALEGQADGRIILRVRRADRLQVEIEDNGPGIPEEIREQIFIPFFTTKTEGSGIGLSLCKQIIRQHDGHLSIRESRPGQTIFSLDLP”: the protein production result was “failed”.

On to “MIGGSLDAFIGSVHRMAAALDGTIELVCGAFSSNAARSIQTGEALHLPKERIYASYEEMIVQEAQLPADVRMQFVSIVTPNHLHAQPALLALKHGFHVLCEKPLAFSVAEAEQLGIQVKETGLLFGLTHTYTAYPMVKEARDLIAKGKLGTIRKIIVEYPQGWLSAPIESDGQKQAGWRTDPAQAGLSCCVGDIGTHAENIAEYITGLKITELSADVSSVVAGRKLDDDANILLRFDNGAKGVLIASQIANGEENELKIRVYGEHAGLEWLQSEPNTLIVKQNDQPTQLRRAGANHSYLSEHARLHCRIPAGHPEGYIEAMANIYRNFSKAVHSFEDQITHNPLLDYPTIEDGIRGMKFIETVIISGKENATWKQLLEHHHHHH”, for which the protein production entry was “not failed”.

Turning to “MIGKVLEGRYEIVSELGGGGMARVYRGQDRLLNRNVTIKILREQYASDKEFLARFQREAQAVASLSHPNVVSIYDVGQEDDLHYLIMEYVEGRSLKDLISERAPLPPLEAIDISLQICDALEHAHENGVIHRDIKPHNILITRNGRVKVTDFGIAQAVSEVTMSQSGTMIGSVHYLAPEQARGGVIGATADIYSLGIVLYEMLTGDLPFHGETPVAVALKHLQENPRPVRELNPNVPPALERVVMRTLEKDPARRYPSAAALRSDLLAVRNALADATFATQVLPAIETPDPPSTLPKPRRRPRVWAWVLMALLFLGLAAAGLWAGFRYYLAVGETLVPSVVGLPEGQALEQLAAAGLRGQVIARQYDASVPAGQVMAQDPGPNQRVRRGRVVALTVSQGARLVRVPSVIGETERNARLILENANLKVAADTLKVYHPSIPAGSVVDQNPPANTQQPEGTEVRLIISKGPEPQFTTAPSVVGLSLAEAQQKLLEAKLKQGTLTYQRSDNQFPGYIIAQDPREGSNVLQGSAINLVVSQGPGPVQKQVGVTIDPAPDDKDHEVRIVVTDAKGTNEVLKKKQKMGQQIQATINYFGKGKLQVFRDGNVIYEQDLQ”, the protein production result is “failed”.

Consider “MIGLVPSPIELSYISDISVPKAASAPAYYDLRALNRLTSVKDQGTAGTCWAFASYSSLESYLKPGEDWDFSENNMKNLLSSAYQEGFDRDPNDGGNRIQAAAYLARWSGPVKESDDPYSTFSGVSPADLPIKKHVQDVIFIPDRADPLDNEAIKWAVQNYGAVYTTMHYNNTFYSPEYYSYYFNGTSEPNHAVAIVGWDDSYDRNNFSKVPPGNGAFIMKNSWGPEWGDKGYFYVSYYDSKAGNGSSVFTAENPENYEYIYQYDPFGWVSSMGYSKPLAWVSNVFTAKSDEVLKAVSFYTTDSNCNYEIYIYTDPVSGPINPAGPVLSKNGTCLTAGYHTIPLDSEVRLIAGQKFSVVIKLTNPSYRYLIPLEKPKDSWSSKARANTGESFISSSGSTWTDVNTSYANSNVCIKAFTNSVLLPIANFSSNITEGYAPLSVQFRDLSGHSTDRTWDFENDGNIDSVEANPIHLFSAPGSLEHHHHHH”, for which the protein production entry is “failed”.

Consider “MIGMDHLAIGTYEGFLIGYDIDTQPNDPKTTTGCTLRYAYAAHERSIRCIAGSFPILASASVDESIKVYQLDQLQELATLYDLQVPVNSVDIQLQGGLLSGGEDGKLVYYPYGGWSKPKYLKGHKGNVHSVALHPTGQICLSVARDKCLKLWKTNGDCVCSLELPDEAFIVKWTEDGQGWVIATQTSFSVHSLQTGLIQQWEYSTRLVCLCALTNDIFVVGGMDGHLRVGENKPIQVHKVDGGSLVKGIGVGRDGCIYSLSSKGVLEMVAPSRQLEIQNGVVKRYIE”, for which the protein production result is reported as “failed”.

As for “MIGYVLNGEHEEIPYGELMALLEIFNYNGSVERLKRYVITEDSPAKDIVKRSGYIDEGHRIIFRYNLEEKSVDLVDKIVNDFINSFKDFVANIDYPDIDESKSYAVRVLKLHKDEFTKSIDSLRIEKEIGGIIKLKTNAKVNLTKPDILVRVVILENTFFISNVLEMRDREYFQKNRPHLRKYFHPGCMLPKLARAMVNLARVKEGDIVLDPFCGTGGFLIEAGLIGAKLIGCDIDWRMASGTLINLEEYNLLDKVIKVKRLDAKYVKEFLNELNIEKVDAIVTDPPYGISTAKKGEIEKILETLPEVIKDNGYFVFAYPKKIELDMELEGLYKVYIHKGLIRHIHVYKKI”, the protein production entry is “failed”.

For the sequence “MIHITSQACFLWHTTINKICNRPMFNPLTIRFWGVRGSIPCPGSHTVRYGGNTPCVEIQANGQRIILDGGTGLRVLGEHLMGQQPVTAHLFFTHTHWDHIQGFPFFQPAFVPGNQFHIYAVPGKNGQGIERRLNDQMLHPNFPVPLQIMGGDLRFYDLEVGERVHLGDGVVVSNEALNHPGGGVGYRVSWQGIHVAYITDTEHLPDRLHPGAFALADHADVMIYDATYTDEEYYHPQQSKVGWGHSTWQEAVKLAQAAQVKQLILFHHDPSHDDDCLDRIGELARAQFPQTLLAREGLIISVYPNVIHFPATPQASLEHHHHHH”, the protein production result was “failed”.

“MIIESRIEKGKPVVGMETTVFVHGLPRKEAIELFRRAKEISREKGFQLAVIGILKGKIVAGMSEEELEAMMREGADKVGTREIPIVVAEGKNAATTVSATIFLSRRIGIEVVVTGGTGGVHPGRVDVSQDLTEMSSSRAVLVSSGIKSILDVEATFEMLETLEIPLVGFRTNEFPLFFSRKSGRRVPRIENVEEVLKIYESMKEMELEKTLMVLNPVPEEYEIPHDEIERLLEKIELEVEGKEVTPFLLKKLVEMTNGRTLKANLALLEENVKLAGEIAVKLKRS”: the protein production result is “not failed”.

“MIIGIDLGTTNSAVAYIDDSGNPTILPNREGERVTPSVIFFEDGSPVIGSTAKSISVSDPTNTVQFVKRQMGNASYKFPIGGEVFTPEDLSALILKRLKEDAEEAIGAKVTKAVITVPAYFDDAQRKATQDAGRIAGLHVLKVINEPTAAALAYGLANREQKQNVMVYDLGGGTFDVTLIQLNQDEVVVKATGGDRNLGGFDFDNKIFELVEQKFEEEHGLDLYDDLNAVQDLREKAEACKKMLSSRKKSVITLSSQGRTVKVEVTKEKFDELLSPLLSRTALIMKNVLMDAELSWGDIDKIVLVGGSTRVPAVSDLIERTTGIKPSKDVNPDEVVALGAAIQGSLLQVDNEASNNAEEFKPKTRVVDVNSHSLGILIHDNNTGGFINQKMIVRNTPIPASEEAVFYTVNDGQTSLHVQVTEGEDSDPDFVKVIGESNLDLRGSKPQGYPVRFIFTYDENGVVHVYGKDENTGQHLGEMQIERKSNLTEAAIEKKAEKLAGISVE”: the protein production entry is “failed”.

Regarding “MIIKNKMVKRLISTFLMSLLLASMMLVIGAGNVYAQGSVSSTSLQVSADGSDYYIIGSDFYNHFVRPTTVDLAKNKVVYNKQILTVYNGRIDKWKMSFLNQDSSGKSWFKFLSYPEATKGDIKITYTTDGINYSDSKPSLEQLKGYMVELLKPIVYPDDANNQENDIEVSFQLSPDTDYILSNSNLNKQFIPFSGENWLQNYSPYPFFTDRNQLQFVYPDYSKGVMVKYVDEEGNEIHDPQTISGSKGDVYDASTDQYKLVLDGYTLDTSKLPQNSIGNFKEALQTVTYVFSKNPVLAADVTVRYVDKENNPISEDIILQGNIGENYYTDKKILKIIL”, the protein production result is recorded as “failed”.

For the sequence “MIIKPAGDSAFLISFGDEISEEINDRVHSLAKAIEKESPEWLVELVPAYSSLLVIYDPLKASYEEVESYLKRISAREVERIKGKTIEIPVAYGGEFGPDIEFVAQYNGLSVDDVIEIHSKPLYRVYFLGFLPGFAYLGGMDERIATPRLEKPRLKVPAGSVGIAGKQTGWYAIESPGGWRIIGRIPLRTFNPGKVPPSIVLPGDYVKFVPIDEKEFWEIYGREWE”, the protein production result is given as “not failed”.

As for “MIILRRLSKEKHHQVNPLWHIYRKIKFVKVLKQTLIIEIARFVPSMKLKNKIYKKLLKMDVGNHTSFAYKVLPDLFYPEYISVGKNTVIGYNTTILTHEVLVDEWRVGKVIIGDYTLIGANTTILPGITIGNHVKIGAGTVVSKDVPDYSFAFGNPMQIQLDSGGDNEWHKKKITSFQ”, the protein production result was “failed”.
